Consider five molecules from patent publication US20210371524A1 (VOR BIOPHARMA, published 2021).

For assay [1], the target named is human CD45 on human cells (PBMC, CD34+CD90+ bone marrow HSCs, cells expressing CD45) (human), P08575. Put plainly: cell-based or functional assay.
The target in assay [2] is T1, Rhesus CD45RABC (rhesus, UniProt A0A1D5R142 26-1310).
T1 sequence: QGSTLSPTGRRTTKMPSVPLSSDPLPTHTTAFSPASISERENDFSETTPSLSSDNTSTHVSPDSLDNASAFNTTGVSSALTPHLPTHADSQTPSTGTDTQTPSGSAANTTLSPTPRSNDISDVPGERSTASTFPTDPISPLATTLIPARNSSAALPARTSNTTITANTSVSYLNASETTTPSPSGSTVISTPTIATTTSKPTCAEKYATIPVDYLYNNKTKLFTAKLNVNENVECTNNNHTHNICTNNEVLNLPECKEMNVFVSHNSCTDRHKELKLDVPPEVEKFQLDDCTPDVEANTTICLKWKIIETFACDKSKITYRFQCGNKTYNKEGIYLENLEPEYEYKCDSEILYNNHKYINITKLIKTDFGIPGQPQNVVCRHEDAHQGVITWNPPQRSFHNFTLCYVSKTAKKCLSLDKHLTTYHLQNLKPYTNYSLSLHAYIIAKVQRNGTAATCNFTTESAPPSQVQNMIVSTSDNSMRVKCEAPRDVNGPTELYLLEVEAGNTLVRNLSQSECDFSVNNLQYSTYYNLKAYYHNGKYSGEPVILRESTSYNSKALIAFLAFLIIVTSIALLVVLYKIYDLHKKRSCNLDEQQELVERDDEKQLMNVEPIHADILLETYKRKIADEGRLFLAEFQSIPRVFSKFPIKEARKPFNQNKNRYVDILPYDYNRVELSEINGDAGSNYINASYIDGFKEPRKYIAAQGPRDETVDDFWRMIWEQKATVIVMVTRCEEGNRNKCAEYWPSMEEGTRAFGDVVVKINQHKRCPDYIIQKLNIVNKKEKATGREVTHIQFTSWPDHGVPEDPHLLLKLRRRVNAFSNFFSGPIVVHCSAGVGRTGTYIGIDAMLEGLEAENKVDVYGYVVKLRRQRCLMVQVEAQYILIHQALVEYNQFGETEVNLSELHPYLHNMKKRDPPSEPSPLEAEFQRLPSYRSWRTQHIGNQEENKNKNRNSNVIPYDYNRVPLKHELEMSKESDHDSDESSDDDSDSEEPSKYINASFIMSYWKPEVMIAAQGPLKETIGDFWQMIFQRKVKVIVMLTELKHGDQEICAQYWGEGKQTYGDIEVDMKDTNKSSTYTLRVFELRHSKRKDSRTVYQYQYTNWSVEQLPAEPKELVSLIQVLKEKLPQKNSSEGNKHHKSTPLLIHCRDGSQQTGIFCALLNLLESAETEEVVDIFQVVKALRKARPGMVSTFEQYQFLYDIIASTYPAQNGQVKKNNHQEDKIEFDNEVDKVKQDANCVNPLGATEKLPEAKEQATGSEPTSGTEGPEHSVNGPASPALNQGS
Description: Octet (BLI), monovalent binding.

In assay [3] the target is T2, Human CD45RABC Antigen (Fragment of Human CD45RABC Isoform) (human, UniProt P08575 26-577).
T2 sequence: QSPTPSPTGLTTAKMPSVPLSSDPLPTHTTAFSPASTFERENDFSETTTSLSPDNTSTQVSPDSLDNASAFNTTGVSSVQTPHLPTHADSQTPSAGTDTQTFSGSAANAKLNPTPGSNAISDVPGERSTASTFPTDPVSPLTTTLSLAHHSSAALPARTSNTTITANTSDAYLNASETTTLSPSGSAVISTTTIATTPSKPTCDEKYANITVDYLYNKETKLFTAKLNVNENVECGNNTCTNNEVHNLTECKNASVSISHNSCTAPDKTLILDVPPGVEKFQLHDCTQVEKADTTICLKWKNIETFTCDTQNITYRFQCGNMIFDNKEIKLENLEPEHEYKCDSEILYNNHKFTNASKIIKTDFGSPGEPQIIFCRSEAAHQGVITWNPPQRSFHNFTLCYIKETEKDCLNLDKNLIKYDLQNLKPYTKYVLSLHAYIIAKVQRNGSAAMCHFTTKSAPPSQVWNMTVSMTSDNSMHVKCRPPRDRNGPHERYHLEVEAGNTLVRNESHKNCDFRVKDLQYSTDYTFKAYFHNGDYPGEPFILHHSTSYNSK
Description: Octet (BLI), monovalent binding.

The target in assay [4] is T3, cynomolgus CD45 RABC (cynomolgus, UniProt A0A2K5VQ76 26-1301).
T3 construct: also called cyno CD45RABC; cyno RABC
T3 sequence: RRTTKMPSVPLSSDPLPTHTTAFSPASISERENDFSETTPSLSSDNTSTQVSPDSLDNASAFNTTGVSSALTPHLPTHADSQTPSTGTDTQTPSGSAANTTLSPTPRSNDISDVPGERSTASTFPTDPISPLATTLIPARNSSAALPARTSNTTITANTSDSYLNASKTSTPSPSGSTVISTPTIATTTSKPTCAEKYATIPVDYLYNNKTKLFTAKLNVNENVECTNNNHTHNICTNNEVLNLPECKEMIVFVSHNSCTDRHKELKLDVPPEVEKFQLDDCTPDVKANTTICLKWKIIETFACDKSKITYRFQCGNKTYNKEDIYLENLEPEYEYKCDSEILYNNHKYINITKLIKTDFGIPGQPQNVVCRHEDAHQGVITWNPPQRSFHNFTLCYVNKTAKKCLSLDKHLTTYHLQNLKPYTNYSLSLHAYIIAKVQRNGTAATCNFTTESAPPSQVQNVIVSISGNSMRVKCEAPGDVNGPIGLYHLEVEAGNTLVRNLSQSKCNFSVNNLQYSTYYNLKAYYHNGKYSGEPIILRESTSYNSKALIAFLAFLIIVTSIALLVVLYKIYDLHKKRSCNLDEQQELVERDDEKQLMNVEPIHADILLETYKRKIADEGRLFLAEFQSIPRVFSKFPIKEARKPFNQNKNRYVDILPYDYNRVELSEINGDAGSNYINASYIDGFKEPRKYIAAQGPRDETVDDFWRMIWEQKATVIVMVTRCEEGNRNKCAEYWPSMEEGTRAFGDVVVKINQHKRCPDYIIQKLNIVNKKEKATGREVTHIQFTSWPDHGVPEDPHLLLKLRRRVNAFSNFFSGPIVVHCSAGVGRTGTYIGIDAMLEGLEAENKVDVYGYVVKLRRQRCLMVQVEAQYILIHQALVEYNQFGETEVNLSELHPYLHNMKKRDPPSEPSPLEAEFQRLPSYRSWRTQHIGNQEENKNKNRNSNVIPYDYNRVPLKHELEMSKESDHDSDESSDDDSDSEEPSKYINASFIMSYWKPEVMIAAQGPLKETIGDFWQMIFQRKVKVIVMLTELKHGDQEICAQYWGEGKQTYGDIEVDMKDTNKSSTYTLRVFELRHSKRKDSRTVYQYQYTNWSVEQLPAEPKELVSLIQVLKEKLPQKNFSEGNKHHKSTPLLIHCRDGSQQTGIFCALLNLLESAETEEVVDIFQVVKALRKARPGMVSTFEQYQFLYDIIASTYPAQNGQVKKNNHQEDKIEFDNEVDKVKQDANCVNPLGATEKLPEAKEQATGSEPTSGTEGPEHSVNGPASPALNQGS
Put plainly: Octet (BLI), monovalent binding. On the technique in general: BLI is a label-free optical method that tracks binding on a fibre tip over time.

The target of assay [5] is T3, cynomolgus CD45 RABC. Description: Octet (BLI), monovalent binding; KD on cyno against KD on human CD45 RABC.
For assay [6], the target named is T1, Rhesus CD45RABC. Put plainly: Octet (BLI), monovalent binding; KD on rhesus against KD on human CD45 RABC.

For orientation: Kd means the constant that tells how readily two partners part at equilibrium. Read a low Kd as tighter binding.

B1: CD45-AM (antibody AbB-amatoxin), Example 4 (antibody, V domains shown)
VH: EVQLVESGGDLVQPGRSLKLSCIASGFTFTNFWMTWIRQVSGKGLEWVASISSSGGSIYYPDSVKDRFTISRDNAKNTLYLQMNSLRSEDTATYYCVKLHYYSGGGDAWGQGTSVTVSS
VL: DIQMTQSPSFLSASVGDRVTINCKASQNINKYLDWYQQKHGEAPKLLIHYTNNLHTGIPSRFSGSGSGTDYTLTISSLQPEDVATYFCLQHSSRWTFGGGTKLELK
modifications: here or on the partner: amanitin conjugated (interchain), drug to antibody ratio (DAR) 4
In assay [1], B1 gave an in vitro killing of human PBMCs, 4 days, Celltiter Glo of 614 pM and an in vitro killing of primary human CD34+CD90+ HSCs, 5 days, flow cytometry counts of 68 pM.

B2: AbC chimera (chimeric Antibody C, human IgG1) (antibody, V domains shown)
VH: EVQLVESGGDLVQPGRSLKLSCVASGFTFNNYWMTWIRQVPGKGLEWVASISSSGGSIYYPDSVKDRFTISRDNAKNTLFLQMNSLRSEDTATYYCARLYYYSGGGDAWGQGTSVTVSS
VL: DIQMTQSPSFLSASVGDRVTIICKASQDINKYLDWYQQKLGEAPKLLIYNTNNLHTGIPSRFSGSGSGTDYTLTISSLQPEDVATYFCLQHISRWTFGGGTKLELK
notes: also called chimeric AbC
As for B2, the values for the Kd (in the assay with Rhesus CD45RABC [2]; in assay [3]; with cynomolgus CD45 RABC [4]) were 63.5 nM, 7.54 nM and 62.2 nM, respectively. Also, the “Fold cyno to Hu” value with cynomolgus CD45 RABC [5] was determined as 8 fold. Further, in the assay with Rhesus CD45RABC [6], the “Fold Rhesus to Hu” value is 8 fold.

B3: AbB chimera (chimeric Antibody B, human IgG1) (antibody, V domains shown)
VH: EVQLVESGGDLVQPGRSLKLSCIASGFTFTNFWMTWIRQVSGKGLEWVASISSSGGSIYYPDSVKDRFTISRDNAKNTLYLQMNSLRSEDTATYYCVKLHYYSGGGDAWGQGTSVTVSS
VL: DIQMTQSPSFLSASVGDRVTINCKASQNINKYLDWYQQKHGEAPKLLIHYTNNLHTGIPSRFSGSGSGTDYTLTISSLQPEDVATYFCLQHSSRWTFGGGTKLELK
notes: also called chimeric AbB
As for B3, the Kd amounted to 15.8 nM in the assay with Rhesus CD45RABC [2], 2.84 nM in assay [3] and 14.5 nM with cynomolgus CD45 RABC [4]. For the same molecule, the “Fold cyno to Hu” value in the assay with cynomolgus CD45 RABC [5] stood at 5 fold. For the same molecule, the “Fold Rhesus to Hu” value with Rhesus CD45RABC [6] was 6 fold.

B4: CD45-AM (chimeric AbA as IgG1 conjugated to amatoxin), Example 2 (antibody, V domains shown)
VH: EVQLVESGGDRVQPGRSLTLSCVTSGFTFNNYWMTWIRQVPGKGLEWVASISSSGGSIYYPDSVKGRFTISRDNAKNTLYLQMNSLRSEDTATYYCARDERWAGAMDAWGQGTSVTVSS
VL: DIQMTQSPPVLSASVGDRVTLSCKASQNINKNLDWYQQKHGEAPKLLIYETNNLQTGIPSRFSGSGSGTDYTLTISSLQPEDVATYYCYQHNSRFTFGSGTKLEIK
modifications: here or on the partner: amatoxin (AM) payload conjugated to the antibody; site and drug to antibody ratio not stated in Example 2
As for B4, in assay [1], the in vitro killing of PBMC immune cells (IC50) was found to be 0.055 nM and the in vitro killing of primary human bone marrow CD34+CD90+ HSCs (IC50) was determined as 0.067 nM.

B5: AbA chimera (chimeric Antibody A, human IgG1) (antibody, V domains shown)
VH: EVQLVESGGDRVQPGRSLTLSCVTSGFTFNNYWMTWIRQVPGKGLEWVASISSSGGSIYYPDSVKGRFTISRDNAKNTLYLQMNSLRSEDTATYYCARDERWAGAMDAWGQGTSVTVSS
VL: DIQMTQSPPVLSASVGDRVTLSCKASQNINKNLDWYQQKHGEAPKLLIYETNNLQTGIPSRFSGSGSGTDYTLTISSLQPEDVATYYCYQHNSRFTFGSGTKLEIK
notes: also called chimeric AbA
B5: the Kd in the assay with Rhesus CD45RABC [2] was found to be 12.3 nM; in assay [3], 2.34 nM; in the assay with cynomolgus CD45 RABC [4], 9.33 nM. Besides, the “Fold cyno to Hu” value in the assay with cynomolgus CD45 RABC [5] stood at 4 fold. Further, the “Fold Rhesus to Hu” value with Rhesus CD45RABC [6] was 5 fold.
